From patent US20150031864A1 come the findings set out here.

A value given as a limit tells only on which side of the number the result lay.

This assay deals with human growth hormone receptor on IM-9 cells (human) (UniProt P10912). Put plainly: cell-based or functional assay.
Sequence of UniProt P10912 (P10912 19-638): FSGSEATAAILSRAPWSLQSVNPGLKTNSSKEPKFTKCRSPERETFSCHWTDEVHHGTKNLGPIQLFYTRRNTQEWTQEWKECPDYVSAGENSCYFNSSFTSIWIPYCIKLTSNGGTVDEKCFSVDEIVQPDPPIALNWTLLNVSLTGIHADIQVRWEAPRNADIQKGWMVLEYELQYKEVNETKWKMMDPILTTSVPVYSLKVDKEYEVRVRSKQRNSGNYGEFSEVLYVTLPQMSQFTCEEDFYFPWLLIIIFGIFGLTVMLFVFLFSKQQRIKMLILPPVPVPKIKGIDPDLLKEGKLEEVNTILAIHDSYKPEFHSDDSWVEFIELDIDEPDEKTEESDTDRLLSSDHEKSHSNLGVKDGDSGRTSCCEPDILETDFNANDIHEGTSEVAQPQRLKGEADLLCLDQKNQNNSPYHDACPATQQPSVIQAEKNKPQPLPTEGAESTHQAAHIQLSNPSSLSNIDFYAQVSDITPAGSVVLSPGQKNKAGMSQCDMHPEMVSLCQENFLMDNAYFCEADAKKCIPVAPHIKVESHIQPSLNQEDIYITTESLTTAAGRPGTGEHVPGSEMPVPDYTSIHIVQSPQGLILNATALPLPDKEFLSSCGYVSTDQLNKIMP
Take “N-6His G131pAF hGH (from UniProt P01241 27-217) (ligand)”: the EC50 (nM) of STAT5 phosphorylation in IM-9 cells worked out at 0.8 nM.

“rat GH WT (from UniProt P01244 27-216) (ligand)”: the EC50 (nM) of STAT5 phosphorylation in IM-9 cells is over 200000 nM. On to “N-6His N99pAF hGH (from UniProt P01241 27-217) (ligand)”, for which the EC50 (nM) of STAT5 phosphorylation in IM-9 cells came out at 8.5 nM. Then “N-6His Q91pAF hGH (from UniProt P01241 27-217) (ligand)”, with 2 nM. For “N-6His S95pAF hGH (from UniProt P01241 27-217) (ligand)”, the EC50 (nM) of STAT5 phosphorylation in IM-9 cells stood at 16.7 nM.

“N-6His Y103pAF hGH (from UniProt P01241 27-217) (ligand)” returned an EC50 (nM) of STAT5 phosphorylation in IM-9 cells of 130000 nM.

For “N-6His P133pAF hGH (from UniProt P01241 27-217) (ligand)”, the EC50 (nM) of STAT5 phosphorylation in IM-9 cells is 1 nM. Turning to “N-6His Y111pAF hGH (from UniProt P01241 27-217) (ligand)”, the EC50 (nM) of STAT5 phosphorylation in IM-9 cells is 1 nM. “N-6His E88pAF hGH (from UniProt P01241 27-217) (ligand)” displayed an EC50 (nM) of STAT5 phosphorylation in IM-9 cells of 0.9 nM. Then “N-6His R134pAF hGH (from UniProt P01241 27-217) (ligand)”, with 0.9 nM; and “N-6His G136pAF hGH (from UniProt P01241 27-217) (ligand)”, with 1.4 nM. As for “N-6His A155pAF hGH (from UniProt P01241 27-217) (ligand)”, the EC50 (nM) of STAT5 phosphorylation in IM-9 cells came to 1.3 nM. Then “N-6His Y143pAF hGH (from UniProt P01241 27-217) (ligand)”, with 0.8 nM; and “N-6His K140pAF hGH (from UniProt P01241 27-217) (ligand)”, with 2.7 nM. “N-6His T135pAF hGH (from UniProt P01241 27-217) (ligand)” registered an EC50 (nM) of STAT5 phosphorylation in IM-9 cells of 0.9 nM. “N-6His F92pAF hGH (from UniProt P01241 27-217) (ligand)”: the EC50 (nM) of STAT5 phosphorylation in IM-9 cells was determined as 0.8 nM. Substance “N-6His F139pAF hGH (from UniProt P01241 27-217) (ligand)” came in with an EC50 (nM) of STAT5 phosphorylation in IM-9 cells of 3.3 nM.
